According to PMC3792905, “HIV-1 Vpr Induces the Degradation of ZIP and sZIP, Adaptors of the NuRD Chromatin Remodeling Complex, by Hijacking DCAF1/VprBP” (PLoS ONE, 2013):

Experiments:
DCAF1 [1] = biological target: DCAF1 (UniProt Q9Y4B6)
DCAF1 [2] = biological target: DCAF1 (UniProt Q9Y4B6 1-1507); assay: cell-based or functional assay
Chain of DCAF1 (UniProt Q9Y4B6 1-1507) (Q9Y4B6 whole entry): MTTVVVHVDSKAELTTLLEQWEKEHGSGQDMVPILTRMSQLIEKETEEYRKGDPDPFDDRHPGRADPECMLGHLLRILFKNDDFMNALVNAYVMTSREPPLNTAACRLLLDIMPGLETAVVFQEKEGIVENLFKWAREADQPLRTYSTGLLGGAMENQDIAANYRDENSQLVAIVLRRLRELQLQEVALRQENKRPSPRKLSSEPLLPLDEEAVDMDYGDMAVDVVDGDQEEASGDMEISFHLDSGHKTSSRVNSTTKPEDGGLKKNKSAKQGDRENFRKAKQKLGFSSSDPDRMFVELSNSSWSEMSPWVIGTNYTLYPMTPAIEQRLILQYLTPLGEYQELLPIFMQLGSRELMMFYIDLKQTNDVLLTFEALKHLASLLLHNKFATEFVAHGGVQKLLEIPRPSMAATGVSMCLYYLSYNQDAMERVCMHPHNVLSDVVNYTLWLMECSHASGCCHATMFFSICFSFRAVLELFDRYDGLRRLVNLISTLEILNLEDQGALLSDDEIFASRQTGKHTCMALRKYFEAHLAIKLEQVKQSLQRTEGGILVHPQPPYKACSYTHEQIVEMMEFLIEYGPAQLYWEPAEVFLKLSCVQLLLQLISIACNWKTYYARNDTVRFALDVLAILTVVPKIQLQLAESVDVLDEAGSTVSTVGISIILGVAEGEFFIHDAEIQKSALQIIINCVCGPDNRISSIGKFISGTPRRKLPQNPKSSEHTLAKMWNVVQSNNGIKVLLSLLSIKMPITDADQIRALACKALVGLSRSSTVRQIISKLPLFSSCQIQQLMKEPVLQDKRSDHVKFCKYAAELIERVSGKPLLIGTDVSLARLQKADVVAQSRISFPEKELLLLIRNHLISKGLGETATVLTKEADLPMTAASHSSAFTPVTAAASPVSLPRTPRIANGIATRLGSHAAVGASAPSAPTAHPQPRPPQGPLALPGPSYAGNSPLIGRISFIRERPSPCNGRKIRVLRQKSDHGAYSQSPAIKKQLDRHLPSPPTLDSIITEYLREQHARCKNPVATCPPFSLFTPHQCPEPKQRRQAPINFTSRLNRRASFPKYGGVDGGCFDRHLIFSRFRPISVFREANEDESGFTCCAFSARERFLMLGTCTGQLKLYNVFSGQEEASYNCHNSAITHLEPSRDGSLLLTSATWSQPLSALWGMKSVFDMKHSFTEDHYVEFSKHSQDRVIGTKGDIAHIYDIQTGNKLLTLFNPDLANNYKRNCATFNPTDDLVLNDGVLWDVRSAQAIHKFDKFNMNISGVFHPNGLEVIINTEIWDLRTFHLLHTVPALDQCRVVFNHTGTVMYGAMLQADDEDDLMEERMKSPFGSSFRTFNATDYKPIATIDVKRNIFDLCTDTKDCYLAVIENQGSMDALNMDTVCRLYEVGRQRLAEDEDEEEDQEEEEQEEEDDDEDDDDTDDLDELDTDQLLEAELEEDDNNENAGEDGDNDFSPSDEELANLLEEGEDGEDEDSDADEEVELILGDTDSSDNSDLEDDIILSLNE

Chain of DCAF1 (UniProt Q9Y4B6) (Q9Y4B6 whole entry): as above

Molecule	sZIP expression (FLAG/GFP signal ratio by Western blot) left in HeLa cells co-expressing FLAG-sZIP and the HA-tagged Vpr protein (DCAF1 [1])	sZIP expression (FLAG/GFP signal ratio by Western blot) left in HeLa cells co-expressing FLAG-sZIP and the HA-tagged Vpr protein (DCAF1 [2])
VprQ65R (from UniProt P05928 1-96) (natural protein)	50%	–
HA-tagged Vpr from HIV-1 LAI (natural protein) MEQAPEDQGPQREPHNEWTLELLEELKNEAVRHFPRIWLHGLGQHIYETYGDTWAGVEAIIRILQQLLFIHFRIGCRHSRIGVTQQRRARNGASRS	–	< 15%
